# Measurements reported in patent US20260049134A1 (UNIVERSITY OF FLORIDA RESEARCH FOUNDATION, published 2026).
# T1: IL13RA1
# T1 construct: coated protein in the ELISA; also called IL13RA1-Fc-His (R&D Systems)
# T1 chain: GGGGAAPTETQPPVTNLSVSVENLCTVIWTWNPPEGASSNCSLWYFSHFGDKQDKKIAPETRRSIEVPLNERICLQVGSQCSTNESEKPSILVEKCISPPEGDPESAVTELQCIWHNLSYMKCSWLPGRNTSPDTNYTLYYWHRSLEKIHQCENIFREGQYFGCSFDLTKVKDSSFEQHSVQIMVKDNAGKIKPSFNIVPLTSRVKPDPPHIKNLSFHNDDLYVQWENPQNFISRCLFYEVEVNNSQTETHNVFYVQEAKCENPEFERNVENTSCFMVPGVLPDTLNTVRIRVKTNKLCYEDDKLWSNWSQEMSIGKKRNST
# T2: SLAMF7
# T2 construct: coated protein in the ELISA; also called SLAMF7-StrepTag
# T2 chain: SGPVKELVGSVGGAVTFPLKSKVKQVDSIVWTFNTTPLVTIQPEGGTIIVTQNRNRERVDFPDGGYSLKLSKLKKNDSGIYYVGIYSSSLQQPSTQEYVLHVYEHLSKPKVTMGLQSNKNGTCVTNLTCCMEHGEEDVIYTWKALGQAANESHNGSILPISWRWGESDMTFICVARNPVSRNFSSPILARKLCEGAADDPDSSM
# T3: GARS-His (Sino Biological) (human, UniProt P41250 37-739, limits assumed)
# T3 construct: Bought; also called GARS1; glycyl-tRNA synthetase; not shown: His tag of the bought protein
# T3 sequence: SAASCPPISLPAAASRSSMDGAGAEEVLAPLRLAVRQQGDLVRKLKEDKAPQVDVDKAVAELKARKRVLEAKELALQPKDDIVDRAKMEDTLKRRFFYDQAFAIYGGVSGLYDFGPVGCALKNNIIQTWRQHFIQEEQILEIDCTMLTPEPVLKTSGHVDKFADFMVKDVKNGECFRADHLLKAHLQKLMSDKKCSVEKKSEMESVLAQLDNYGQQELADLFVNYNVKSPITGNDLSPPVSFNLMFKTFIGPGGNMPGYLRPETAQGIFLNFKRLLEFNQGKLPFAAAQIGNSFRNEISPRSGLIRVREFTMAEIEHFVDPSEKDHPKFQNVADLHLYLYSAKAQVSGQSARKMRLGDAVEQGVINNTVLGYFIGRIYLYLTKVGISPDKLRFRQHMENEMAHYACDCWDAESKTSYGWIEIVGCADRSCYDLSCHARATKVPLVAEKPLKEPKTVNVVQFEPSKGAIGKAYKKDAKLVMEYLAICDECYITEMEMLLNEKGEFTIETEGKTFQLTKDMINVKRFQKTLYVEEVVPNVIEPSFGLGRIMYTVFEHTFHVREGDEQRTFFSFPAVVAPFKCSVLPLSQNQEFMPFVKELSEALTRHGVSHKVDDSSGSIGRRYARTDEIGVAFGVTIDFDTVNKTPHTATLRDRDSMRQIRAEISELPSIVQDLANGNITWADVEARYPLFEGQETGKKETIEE
# B1: HW-97 chimeric rabbit-human IgG1 LA/LA/PG (antibody, V domains shown)
# VH: QKQLVESGGRLVTPGTPLTLTCTVTGIDLSSHGMSWVRQAPGKGLEWIGVIYPSGSTWYASWARGRFTISKTSTTVDLKMTSLTTEDTATHFCARGDVGGADNNIWGPGTLVTVSS
# VL: SFVLTQPASVQVDLGQTVSLTCTAETLSRSYASWYQQKPGQAPVLLIYRDTSRPSGVPDRFSGSSSGNTATLTISGAQAGDEADYYCATSDGSGSSYQYVFGGGTQLTVTG
# notes: Fc-silenced (L234A/L235A/P329G) IgG1, lambda; Alexa Fluor 647-labeled in single-step flow cytometry; Prototype of cluster C-97
# B2: HW-101 chimeric rabbit-human IgG1 LA/LA/PG (antibody, V domains shown)
# VH: QEQLVESGGRLVTPGTPLTLTCKASGFSLGKYDMSWVRQAPGKGLEWIGTIYAGSGSTWYASWAKGRFTISKTSTTVDLKMTSLTTEDTATYFCARDFLGVNSIWGPGTLVTISS
# VL: SFVLTQPASVQVNLGQTVSLTCTADTLSRSYASWYQQKPDQAPVLLIHRDTSRPSGVPDRFSGSNSGNTATLTISGAQAGDEADYYCATSDGSGSNFHFVFGGGTQLTVTG
# notes: Fc-silenced (L234A/L235A/P329G) IgG1, lambda; Alexa Fluor 647-labeled in single-step flow cytometry; Cluster C-97
# B3: HW-113 chimeric rabbit-human IgG1 LA/LA/PG (antibody, V domains shown)
# VH: QKQLVESGGGLVQPGGSLTLTCTVSGFSLNKYYMGWFRQAPGKGLEWIGVISRSGDTYYSSWAKGRFTISKASTTVDLRITSPTTEDTATYFCARDASSPGFHGDRLDLWGQGTLVTVSS
# VL: SFVLTQPASVQVNLGQTVSLTCTADTLSRSYASWYQQKPGQAPVLLIYRDTSRPSGVPDRFSGSSSGNTATLTISGAQAGDEADYYCATSDGIGSNYLWVFGGGTQLTVTG
# notes: Fc-silenced (L234A/L235A/P329G) IgG1, lambda; Alexa Fluor 647-labeled in single-step flow cytometry
# What was measured:
# [1] = biological target: T1, IL13RA1; assay: ELISA on coated IL13RA1-Fc-His, 150 ng IgG1; None 0.094
# Protocol: (§1) Recombinant purified ECDs (50-150 ng) of each putative target protein were coated, incubated with 150 ng of the indicated primary antibody, and binding was detected using a peroxidase-conjugated anti-human Fab secondary antibody. Heatmap represents averages of technical triplicates. (8B) Target validation via siRNA knockdown. H929 cells were transfected with siRNA pools targeting the putative antibody targets ICAM1, CADM1, and PTPRG. Cells were then subjected to cognate IgG binding analysis via flow cytometry. (NT, non-targeting siRNA).
# (§2) ELISA ELISA was conducted as described previously. Briefly, 50-150 ng of antigen was coated overnight in half-area 96-well plates at 4° C., blocked with 3% BSA at 37° C. for 1 h, and 150 ng of chimeric rabbit/human IgG1 was added, incubating for 2 h at 37° C. […] After incubating at 37° C. for 15 min-1 h (depending on intensity of controls), data were acquired using a SpectraMax M5 plate reader (Molecular Devices).
# [2] = biological target: T4, APP; assay: ELISA on coated APP-His, 150 ng IgG1; None 0.092
# T4 construct: His-tagged; coated protein in the ELISA; also called APP-His (Acro Biosystems)
# Protocol: as §1, §2
# [3] = biological target: T2, SLAMF7; assay: ELISA on coated SLAMF7-StrepTag, 150 ng IgG1; None 0.047
# Protocol: as §1, §2
# [4] = biological target: T3, GARS-His (Sino Biological); assay: ELISA on coated GARS-His, 150 ng IgG1; None 0.099
# Protocol: as §1, §2
Binder,ELISA Absorbance (405 nm-570 nm) [1],ELISA Absorbance (405 nm-570 nm) [2],ELISA Absorbance (405 nm-570 nm) [3],ELISA Absorbance (405 nm-570 nm) [4]
B1,0.08,0.067,0.051,0.079
B2,0.067,0.061,0.046,0.093
B3,0.086,0.074,0.048,0.088
